Assay results published in IntAct's records for PubMed 9418872.

B1: Tyrosine-protein phosphatase non-receptor type 1 (Homo sapiens), P18031 (parent)
chain: MEMEKEFEQIDKSGSWAAIYQDIRHEASDFPCRVAKLPKNKNRNRYRDVSPFDHSRIKLHQEDNDYINASLIKMEEAQRSYILTQGPLPNTCGHFWEMVWEQKSRGVVMLNRVMEKGSLKCAQYWPQKEEKEMIFEDTNLKLTLISEDIKSYYTVRQLELENLTTQETREILHFHYTTWPDFGVPESPASFLNFLFKVRESGSLSPEHGPVVVHCSAGIGRSGTFCLADTCLLLMDKRKDPSSVDIKKVLLEMRKFRMGLIQTADQLRFSYLAVIEGAKFIMGDSSVQDQWKELSHEDLEPPPEHIPPPPRPPKRILEPHNGKCREFFPNHQWVKEETQEDKDCPIKEEKGSPLNAAPYGIESMSQDTEVRSRVVGGSLRGAQAASPAKGEPSLPEKDEDHALSYWKPFLVNMCVATVLTAGAYLCYRFLFNSNT
partner: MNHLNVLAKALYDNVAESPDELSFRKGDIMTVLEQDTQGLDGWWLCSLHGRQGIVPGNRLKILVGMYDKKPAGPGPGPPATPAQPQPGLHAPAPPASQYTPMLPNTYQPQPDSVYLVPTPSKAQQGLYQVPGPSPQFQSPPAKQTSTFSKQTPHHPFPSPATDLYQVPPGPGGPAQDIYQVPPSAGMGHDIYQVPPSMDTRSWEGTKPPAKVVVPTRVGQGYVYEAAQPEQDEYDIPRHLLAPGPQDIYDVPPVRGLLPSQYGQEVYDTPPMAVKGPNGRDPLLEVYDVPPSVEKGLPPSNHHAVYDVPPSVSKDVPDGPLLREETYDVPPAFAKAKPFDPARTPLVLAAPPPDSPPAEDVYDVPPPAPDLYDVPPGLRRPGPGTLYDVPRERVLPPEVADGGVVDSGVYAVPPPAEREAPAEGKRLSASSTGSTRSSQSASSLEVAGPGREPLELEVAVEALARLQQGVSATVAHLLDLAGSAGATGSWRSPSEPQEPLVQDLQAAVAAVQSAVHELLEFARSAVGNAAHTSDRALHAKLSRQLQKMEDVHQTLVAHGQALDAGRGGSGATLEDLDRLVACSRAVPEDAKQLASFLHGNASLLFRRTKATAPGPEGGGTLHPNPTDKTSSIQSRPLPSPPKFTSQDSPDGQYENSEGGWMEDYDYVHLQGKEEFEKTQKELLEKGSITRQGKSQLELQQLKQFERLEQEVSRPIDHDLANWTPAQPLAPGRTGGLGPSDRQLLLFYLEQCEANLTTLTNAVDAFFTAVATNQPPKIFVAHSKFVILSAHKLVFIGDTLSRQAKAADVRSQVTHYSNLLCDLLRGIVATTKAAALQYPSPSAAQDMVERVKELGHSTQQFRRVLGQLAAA
B2: Tyrosine-protein phosphatase non-receptor type 1 (Homo sapiens), P18031 (parent)
chain: B1 chain
partner: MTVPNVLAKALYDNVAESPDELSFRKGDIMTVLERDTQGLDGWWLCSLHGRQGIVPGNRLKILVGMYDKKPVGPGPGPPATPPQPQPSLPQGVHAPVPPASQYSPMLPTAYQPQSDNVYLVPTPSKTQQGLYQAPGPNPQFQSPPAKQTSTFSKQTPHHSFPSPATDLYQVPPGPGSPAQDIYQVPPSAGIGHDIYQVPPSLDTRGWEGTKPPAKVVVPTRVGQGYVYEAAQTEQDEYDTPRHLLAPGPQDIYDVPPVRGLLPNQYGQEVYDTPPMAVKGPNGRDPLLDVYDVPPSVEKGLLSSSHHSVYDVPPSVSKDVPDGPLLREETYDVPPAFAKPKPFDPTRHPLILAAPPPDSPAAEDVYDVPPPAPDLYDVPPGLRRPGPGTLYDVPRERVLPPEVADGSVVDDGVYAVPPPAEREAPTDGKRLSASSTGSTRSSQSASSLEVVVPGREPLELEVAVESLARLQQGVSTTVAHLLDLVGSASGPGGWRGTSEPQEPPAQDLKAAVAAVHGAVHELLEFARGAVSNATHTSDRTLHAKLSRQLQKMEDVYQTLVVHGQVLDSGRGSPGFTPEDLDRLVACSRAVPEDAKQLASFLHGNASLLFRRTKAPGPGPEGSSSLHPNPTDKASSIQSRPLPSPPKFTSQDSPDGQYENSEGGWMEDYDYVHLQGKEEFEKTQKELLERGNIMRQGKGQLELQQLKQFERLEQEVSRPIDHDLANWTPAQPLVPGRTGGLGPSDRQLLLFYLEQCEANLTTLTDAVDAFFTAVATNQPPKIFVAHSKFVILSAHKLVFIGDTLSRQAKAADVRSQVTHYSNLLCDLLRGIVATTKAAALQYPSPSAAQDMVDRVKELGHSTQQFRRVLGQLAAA

Variants of: B1
Details: with bcar1_human BCAR1, P56945

effect of a mutation on the interaction	Variant
disrupting interaction	MEMEKEFEQIDKSGSWAAIYQDIRHEASDFPCRVAKLPKNKNRNRYRDVSPFDHSRIKLHQEDNDYINASLIKMEEAQRSYILTQGPLPNTCGHFWEMVWEQKSRGVVMLNRVMEKGSLKCAQYWPQKEEKEMIFEDTNLKLTLISEDIKSYYTVRQLELENLTTQETREILHFHYTTWPDFGVPESPASFLNFLFKVRESGSLSPEHGPVVVHCSAGIGRSGTFCLADTCLLLMDKRKDPSSVDIKKVLLEMRKFRMGLIQTADQLRFSYLAVIEGAKFIMGDSSVQDQWKELSHEDLEPPPEHIPPPARPPKRILEPHNGKCREFFPNHQWVKEETQEDKDCPIKEEKGSPLNAAPYGIESMSQDTEVRSRVVGGSLRGAQAASPAKGEPSLPEKDEDHALSYWKPFLVNMCVATVLTAGAYLCYRFLFNSNT [P310A]
disrupting interaction	MEMEKEFEQIDKSGSWAAIYQDIRHEASDFPCRVAKLPKNKNRNRYRDVSPFDHSRIKLHQEDNDYINASLIKMEEAQRSYILTQGPLPNTCGHFWEMVWEQKSRGVVMLNRVMEKGSLKCAQYWPQKEEKEMIFEDTNLKLTLISEDIKSYYTVRQLELENLTTQETREILHFHYTTWPDFGVPESPASFLNFLFKVRESGSLSPEHGPVVVHCSAGIGRSGTFCLADTCLLLMDKRKDPSSVDIKKVLLEMRKFRMGLIQTADQLRFSYLAVIEGAKFIMGDSSVQDQWKELSHEDLEPPPEHIPPAPRPPKRILEPHNGKCREFFPNHQWVKEETQEDKDCPIKEEKGSPLNAAPYGIESMSQDTEVRSRVVGGSLRGAQAASPAKGEPSLPEKDEDHALSYWKPFLVNMCVATVLTAGAYLCYRFLFNSNT [P309A]

Variants of: B2
Details: with bcar1_mouse Bcar1, Q61140

effect of a mutation on the interaction	Variant
disrupting interaction	MEMEKEFEQIDKSGSWAAIYQDIRHEASDFPCRVAKLPKNKNRNRYRDVSPFDHSRIKLHQEDNDYINASLIKMEEAQRSYILTQGPLPNTCGHFWEMVWEQKSRGVVMLNRVMEKGSLKCAQYWPQKEEKEMIFEDTNLKLTLISEDIKSYYTVRQLELENLTTQETREILHFHYTTWPDFGVPESPASFLNFLFKVRESGSLSPEHGPVVVHCSAGIGRSGTFCLADTCLLLMDKRKDPSSVDIKKVLLEMRKFRMGLIQTADQLRFSYLAVIEGAKFIMGDSSVQDQWKELSHEDLEPPPEHIPPAPRPPKRILEPHNGKCREFFPNHQWVKEETQEDKDCPIKEEKGSPLNAAPYGIESMSQDTEVRSRVVGGSLRGAQAASPAKGEPSLPEKDEDHALSYWKPFLVNMCVATVLTAGAYLCYRFLFNSNT [P309A]
disrupting interaction	MEMEKEFEQIDKSGSWAAIYQDIRHEASDFPCRVAKLPKNKNRNRYRDVSPFDHSRIKLHQEDNDYINASLIKMEEAQRSYILTQGPLPNTCGHFWEMVWEQKSRGVVMLNRVMEKGSLKCAQYWPQKEEKEMIFEDTNLKLTLISEDIKSYYTVRQLELENLTTQETREILHFHYTTWPDFGVPESPASFLNFLFKVRESGSLSPEHGPVVVHCSAGIGRSGTFCLADTCLLLMDKRKDPSSVDIKKVLLEMRKFRMGLIQTADQLRFSYLAVIEGAKFIMGDSSVQDQWKELSHEDLEPPPEHIPPPARPPKRILEPHNGKCREFFPNHQWVKEETQEDKDCPIKEEKGSPLNAAPYGIESMSQDTEVRSRVVGGSLRGAQAASPAKGEPSLPEKDEDHALSYWKPFLVNMCVATVLTAGAYLCYRFLFNSNT [P310A]

Variants of: B2
Details: with bcar1_mouse Bcar1, Q61140
Remark: another data set of the same source

effect of a mutation on the interaction	Variant
disrupting interaction	MEMEKEFEQIDKSGSWAAIYQDIRHEASDFPCRVAKLPKNKNRNRYRDVSPFDHSRIKLHQEDNDYINASLIKMEEAQRSYILTQGPLPNTCGHFWEMVWEQKSRGVVMLNRVMEKGSLKCAQYWPQKEEKEMIFEDTNLKLTLISEDIKSYYTVRQLELENLTTQETREILHFHYTTWPDFGVPESPASFLNFLFKVRESGSLSPEHGPVVVHSSAGIGRSGTFCLADTCLLLMDKRKDPSSVDIKKVLLEMRKFRMGLIQTADQLRFSYLAVIEGAKFIMGDSSVQDQWKELSHEDLEPPPEHIPPPPRPPKRILEPHNGKCREFFPNHQWVKEETQEDKDCPIKEEKGSPLNAAPYGIESMSQDTEVRSRVVGGSLRGAQAASPAKGEPSLPEKDEDHALSYWKPFLVNMCVATVLTAGAYLCYRFLFNSNT [C215S]
